# Test results taken from patent publication US20230322924A1 (Janssen / Centocor, published 2023).
# T1: Soy Trypsin Inhibitor (soy, UniProt P01070 25-205)
# T1 construct: also called STI
# T1 sequence (looked up): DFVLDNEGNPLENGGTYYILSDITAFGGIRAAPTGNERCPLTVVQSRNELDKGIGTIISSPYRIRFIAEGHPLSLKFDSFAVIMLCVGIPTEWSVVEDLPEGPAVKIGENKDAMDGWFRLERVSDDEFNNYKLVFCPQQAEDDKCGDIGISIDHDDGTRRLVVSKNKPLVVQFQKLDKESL
# T2: rh-CD19 (UniProt P15391 20-291, limits assumed)
# T2 sequence (looked up): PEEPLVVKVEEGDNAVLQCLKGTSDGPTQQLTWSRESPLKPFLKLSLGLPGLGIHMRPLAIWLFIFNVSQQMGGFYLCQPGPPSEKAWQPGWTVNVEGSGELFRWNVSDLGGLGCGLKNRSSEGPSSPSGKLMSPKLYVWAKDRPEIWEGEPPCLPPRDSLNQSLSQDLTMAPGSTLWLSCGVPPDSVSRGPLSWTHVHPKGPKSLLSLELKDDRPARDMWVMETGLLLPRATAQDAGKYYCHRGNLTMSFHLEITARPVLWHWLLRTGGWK
# T3: human TMEFF2 extracellular domain (ECD) (human, UniProt Q9UIK5 41-320)
# T3 construct: also called TMEFF2-ECD
# T3 sequence: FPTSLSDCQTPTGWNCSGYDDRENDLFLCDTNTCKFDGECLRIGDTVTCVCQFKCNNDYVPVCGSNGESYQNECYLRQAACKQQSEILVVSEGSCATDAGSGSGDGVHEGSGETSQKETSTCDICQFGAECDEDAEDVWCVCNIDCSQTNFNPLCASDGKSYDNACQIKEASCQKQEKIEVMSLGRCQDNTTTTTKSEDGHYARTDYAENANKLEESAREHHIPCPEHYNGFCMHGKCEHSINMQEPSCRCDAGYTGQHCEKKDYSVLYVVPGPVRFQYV
# T4: TMEW1 (TMEFF2-FL-ECD-His-Avitag) (human, UniProt Q9UIK5 41-320)
# T4 construct: Human TMEFF2 ECD with C-terminal G3S, 6xHis tag and Avi-tag, all in the entry; also called TMEFF2 ECD
# T4 sequence: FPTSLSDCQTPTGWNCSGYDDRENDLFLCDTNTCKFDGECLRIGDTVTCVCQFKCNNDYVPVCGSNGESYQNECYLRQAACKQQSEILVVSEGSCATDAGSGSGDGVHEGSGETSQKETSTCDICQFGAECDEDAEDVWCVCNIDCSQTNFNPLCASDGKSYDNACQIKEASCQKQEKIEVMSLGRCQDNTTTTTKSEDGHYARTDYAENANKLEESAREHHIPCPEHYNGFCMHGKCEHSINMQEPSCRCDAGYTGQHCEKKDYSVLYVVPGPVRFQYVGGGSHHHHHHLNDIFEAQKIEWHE
# Tests used:
# [1] = molecular target: T5, human CD3 on human T cells (human, UniProt P07766 23-207); test: flow cytometry, primary human T cells, AF647 anti-human IgG F(ab')2 secondary
# T5 construct: Native TCR-CD3 complex on cells; also called primary human T cells; human pan T cells
# Procedure: The 80 mutant clones were assayed for binding to primary human T cells (FIGS. 7 and 8). […] The plates were centrifuged at 300×g for 5 minutes to pellet the cells and the supernatant removed. The plate was gently vortexed briefly to resuspend the cells.
# [2] = molecular target: T6, N-terminal CD3ε peptide; test: Biacore 8K SPR, antibody captured on anti-human Ig, peptide as analyte
# T6 construct: domain: N-terminal CD3ε peptide
# Procedure: Kinetic rate constants were measured by SPR performed using Biacore 8K (GE Healthcare) and anti-human Fc biosensor surfaces. Anti-human immunoglobulin antibodies were covalently coupled to the surface of a CM4 sensor chip (GE Healthcare). Antibodies of interest were captured on the anti-human immunoglobulin sensor chip, followed by injection of N-terminal CD3ε peptide at various concentrations in HEPES Buffered Saline containing 0.05% surfactant P20 (Tween™ 20) and 100 ug/mL BSA. The surface was regenerated with 2 pulses injections of 30 μL of 0.8% phosphoric acid at 100 μL/min. Data reported is the difference in SPR signal between the flow cell containing the captured antibody and a reference cell without captured antibody. Additional instrumental contributions to the signal were removed by subtraction of the data from the blank injection from the reference-subtracted signal. The data were analyzed by fitting association and dissociation phases at all concentrations (global fit) with a 1:1 binding model using the Biaevaluation software (Biacore, Inc.). Data is reported as average+95% CI (Confidence Interval) which is calculated by t value for 95% CI*stdev/square root of the number of replicates.
# [3] = molecular target: T1, Soy Trypsin Inhibitor; test: Biacore 8K non-specific binding test, antibody over immobilised protein
# Procedure: (§1) Non-specific binding of the lead molecule to unrelated surfaces is determined by biosensor technology (Biacore 8K). Antibody is passed over SPR surfaces coated with unrelated proteins. […] Irrelevant surfaces include negatively charged protein (Soy Trypsin Inhibitor), positively charged protein (Lysozyme and β-defensin), hydrophobic (Rh-integrin a4b7), human IgG, sticky protein (Rh-CD19). Proper controls are used in this experiment. Lead is flown over two surfaces, one is a blank and the other has a molecule directly immobilized. The response unit (RU) level is determined by subtracting the blank RU from the test surface RU. […] A response unit ≥100 predicts high risks for non-specific binding to charged/hydrophobic/IgG surfaces which would create challenges during manufacturing and translate to poor PK properties.
# [4] = molecular target: T7, B-Defensin-3; test: as above
# T7 construct: also called β-defensin
# Procedure: as §1
# [5] = molecular target: Human IgG; test: as above
# Procedure: as §1
# [6] = molecular target: Lysozyme; test: as above
# Procedure: as §1
# [7] = molecular target: rh-Integrin a4b7 (UniProt P13612 34-977; P26010 20-723, limits assumed); test: as above
# Procedure: as §1
# [8] = molecular target: T2, rh-CD19; test: as above
# Procedure: as §1
# [9] = molecular target: T3, human TMEFF2 extracellular domain (ECD); test: KinExA solution equilibrium affinity
# Procedure: Serial dilutions of human TMEFF2 extracellular domain (ECD) were prepared with a constant concentration of anti-TMEFF2 mAb in 10 mM HEPES, 150 mM NaCL, 0.05% surfactant P20, pH 7.4, 0.1% BSA, and 0.02% NaN3. The reaction mixtures were incubated at RT until the binding interactions reached equilibrium. The duration of the incubation was determined using KinExA software simulation. Beads were prepared by direct covalent immobilization of TMEFF2-ECD by amine-coupling on pre-activated beads composed of bis-acrylamide/azlactone copolymer (Pierce Biotechnology, Inc.). After incubation the samples were run on the KinExA instrument to assess free antibody in the mixture by passing the mixture though the TMEFF2-modified beads, and detecting the captured antibody using a fluorescently labeled secondary antibody. The data was fit with a 1:1 binding model using the KinExA Pro software.
# [10] = molecular target: T4, TMEW1 (TMEFF2-FL-ECD-His-Avitag); test: Biacore 8K SPR, mAb captured on anti-human Fc, single cycle kinetics
# Procedure: The binding of anti-TMEFF2 mAbs to human TMEFF2 ECD was measured by Biacore 8K SPR. The format of the assay was to capture the mAbs using a high density anti-human Fc surface, then inject human TMEFF2 concentration titration using a single cycle kinetics method. […] The mAbs were captured on the anti-human Fc IgG surface at 0.5 μg/ml (˜200-300 RU) on flow cell 2. The running buffer was then changed to HBSP+100 ug/ml BSA. TMEFF2 ECD at 30 nM concentration in 3-fold dilution series was injected from low to high concentration using single cycle kinetics method. The off-rate was monitored 30 minutes after the last or highest concentration injection and then the surface was regenerated using 0.8% phosphoric acid (Bio-Rad). A buffer blank run, capturing the same mAbs and using the same conditions of sample run was also completed. The raw data were processed by subtracting two sets of reference data from the response data: 1) reference flow cell 1 subtracted from sample flow cell 2 and 2) buffer blank run from experimental run. The processed data at all concentrations for each mAb were globally fit to a 1:1 simple Langmuir binding model to extract estimates of the kinetic (kon, koff) and affinity (KD) constants.
# [11] = molecular target: T8, Human CD33 ECD-HSA (human); test: SPRi off-rate screen (IBIS MX96)
# T8 construct: CD33 ECD fused at the C-terminus to monomeric HSA (C58S) and a six-histidine tag; also called C33W2; huCD33 ECD-HSA
# [12] = molecular target: T9, Human CD33-V-HSA (human); test: SPRi off-rate screen (IBIS MX96)
# T9 construct: V domain of human CD33 fused to HSA; also called C33W3; huCD33-V-HSA
# T7 sequence (P81534 23-67): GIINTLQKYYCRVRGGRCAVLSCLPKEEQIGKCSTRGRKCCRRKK
# Chain of Lysozyme (P00698 19-147): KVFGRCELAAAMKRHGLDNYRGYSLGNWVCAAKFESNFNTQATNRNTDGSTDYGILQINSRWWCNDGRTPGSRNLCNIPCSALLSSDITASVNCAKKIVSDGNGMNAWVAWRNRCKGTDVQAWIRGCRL
# T6 sequence (P07766 22-48): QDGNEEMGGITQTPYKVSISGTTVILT
# T5 sequence (P07766 23-207 limits assumed): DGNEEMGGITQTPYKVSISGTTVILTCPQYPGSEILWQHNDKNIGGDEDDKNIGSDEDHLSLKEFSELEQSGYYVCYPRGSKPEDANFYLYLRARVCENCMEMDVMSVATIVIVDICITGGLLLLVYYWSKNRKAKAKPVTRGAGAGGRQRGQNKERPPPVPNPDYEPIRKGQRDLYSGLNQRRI
Binder,binding result [1],Kd [2],koff [2],kon [2],response units (RU) [3],response units (RU) [4],response units (RU) [5],response units (RU) [6],response units (RU) [7],response units (RU) [8],Kd [9],Kd [10],koff [10],kon [10],koff [11],koff [12]
"CD3B376 (antibody, human IgG4 S228P, lambda, F234A L235A, V domains shown, Bivalent anti-CD3 parental mAb, IgG4 PAA with F405L and R409K; also called CD3H219/CD3L150) VH: QVQLQQSGPRLVRPSQTLSLTCAISGDSVFNNNAAWSWIRQSPSRGLEWLGRTYYRSKWLYDYAVSVKSRITVNPDTSRNQFTLQLNSVTPEDTALYYCARGYSSSFDYWGQGTLVTVSS VL: QSALTQPASVSGSPGQSITISCTGTSSNIGTYKFVSWYQQHPDKAPKVLLYEVSKRPSGVSSRFSGSKSGNTASLTISGLQAEDQADYHCVSYAGSGTLLFGGGTKLTVLG",,26.9 nM,0.00117 s⁻¹,43300 M⁻¹ s⁻¹,19.5 RU,3.1 RU,0.4 RU,0.2 RU,0 RU,0 RU,,,,,,
"C33B836 (antibody, IgG4, V domains shown, OMNIRat-derived; same V regions as C33B48; also called C33H80/C33L73; C33F53) VH: QVQLVQSGSELRKPGASVKVSCKASGYTFTNYAMNWVRQAPGQGLEWMGWINTNTGNPTYAQGFTGRFVFSLDTSVSSAYLQISSLKAEDTAMYYCATDRDRGTDYWGQGTLVTVSS VL: QSALTQPASVSGSPGQSITISCTGTSSDVGDYNYVSWYQQHPGKVPKLMIYDVSNRPSGVSNRFSGSMSGNTASLTISGLQAEDEADYYCSSYSSSSALEVFGGGTKLTVL",,,,,,,,,,,,,,,5.52e-05 s⁻¹,3.71e-05 s⁻¹

# More lines, now with the values ahead:
binding result [1],Kd [2],koff [2],kon [2],response units (RU) [3],response units (RU) [4],response units (RU) [5],response units (RU) [6],response units (RU) [7],response units (RU) [8],Kd [9],Kd [10],koff [10],kon [10],koff [11],koff [12],Binder
no binding (tested: 50 nM),,,,,,,,,,,,,,,,"D43G/V48L/L49M/L50I/S62N/Q85E/H89Y LC (with WT HC) (antibody, V domains shown, also called BLW-2E6 variant CD3H219/CD3L136) VH: QVQLQQSGPRLVRPSQTLSLTCAISGDSVFNNNAAWSWIRQSPSRGLEWLGRTYYRSKWLYDYAVSVKSRITVNPDTSRNQFTLQLNSVTPEDTALYYCARGYSSSFDYWGQGTLVTVSS VL: QSALTQPASVSGSPGQSITISCTGTSSNIGTYKFVSWYQQHPGKAPKLMIYEVSKRPSGVSNRFSGSKSGNTASLTISGLQAEDEADYYCCSYAGSGTLLFGGGTKLTVL"
,28.7 nM,0.00103 s⁻¹,35700 M⁻¹ s⁻¹,,6.4 RU,7.5 RU,4.2 RU,0 RU,3.4 RU,0.0636 nM,,,,,,"TMCB150 (bispecific antibody, human IgG4 S228P, kappa, lambda, F234A L235A, IgG4 PAA bispecific by Fab-arm exchange; also called TMEB762 x CD3B376) heavy 1: not shown light 1: not shown heavy 2: QVQLQQSGPRLVRPSQTLSLTCAISGDSVFNNNAAWSWIRQSPSRGLEWLGRTYYRSKWLYDYAVSVKSRITVNPDTSRNQFTLQLNSVTPEDTALYYCARGYSSSFDYWGQGTLVTVSSASTKGPSVFPLAPCSRSTSESTAALGCLVKDYFPEPVTVSWNSGALTSGVHTFPAVLQSSGLYSLSSVVTVPSSSLGTKTYTCNVDHKPSNTKVDKRVESKYGPPCPPCPAPEAAGGPSVFLFPPKPKDTLMISRTPEVTCVVVDVSQEDPEVQFNWYVDGVEVHNAKTKPREEQFNSTYRVVSVLTVLHQDWLNGKEYKCKVSNKGLPSSIEKTISKAKGQPREPQVYTLPPSQEEMTKNQVSLTCLVKGFYPSDIAVEWESNGQPENNYKTTPPVLDSDGSFLLYSKLTVDKSRWQEGNVFSCSVMHEALHNHYTQKSLSLSLGK light 2: QSALTQPASVSGSPGQSITISCTGTSSNIGTYKFVSWYQQHPDKAPKVLLYEVSKRPSGVSSRFSGSKSGNTASLTISGLQAEDQADYHCVSYAGSGTLLFGGGTKLTVLGQPKAAPSVTLFPPSSEELQANKATLVCLISDFYPGAVTVAWKADSSPVKAGVETTTPSKQSNNKYAASSYLSLTPEQWKSHRSYSCQVTHEGSTVEKTVAPTECS"
,,,,,4.1 RU,8.4 RU,4.6 RU,0 RU,3.3 RU,0.0461 nM,0.32 nM,0.000174 s⁻¹,541000 M⁻¹ s⁻¹,,,"TMEB762 (antibody, human IgG4 S228P, kappa, F234A L235A, V domains shown, IgG4 PAA anti-TMEFF2; re-engineered variant of TMEB675; also called TMEH459/DL3L129) VH: EVQLLESGGGLVQPGGSLRLSCAASGFTFSSYSMSWVRQAPGKGLEWVSVISGSGGFTDYADSVKGRFTISRDNSKNTLYLQMNSLRAEDTAVYYCARMPLNSPHDYWGQGTLVTVSS VL: DIQMTQSPSSLSASVGDRVTITCRASQGIRNDLGWYQQKPGKAPKLLIYAASSLQSGVPSRFSGSGSGTDFTLTISSLQPEDFATYYCLQDYNYPLTFGGGTKVEIKR"
